In the supplement of paper PMC9112550, “Optimization of the antimicrobial peptide Bac7 by deep mutational scanning” (BMC Biology, 2022):

Tested on: Escherichia coli TOP10
Assay: shrunken log2 fold change of peptide-encoding DNA abundance (4.5 h post-induction vs induction); higher = less antimicrobial activity (less host growth inhibition)
Details: time post-induction: 4.5 h; library: site-saturation at positions 5, 18, 19, 20
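Also: peptides expressed intracellularly from a pBAD plasmid library in pooled LB shake-flask culture, induced with 0.3% L-arabinose, DNA abundance read by NGS, three biological replicates, DESeq2 with apeglm shrinkage.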

| Sequence | shrunken log2 fold change |
| --- | --- |
| RRIRPRPPRLPRPRPRPEVMPRP | 0.462 |
| RRIRPRPPRLPRPRPRPEWFPRP | 0.341 |
| RRIRPRPPRLPRPRPRPFECPRP | -0.242 |
| RRIRPRPPRLPRPRPRPFEHPRP | 0.0626 |
| RRIRPRPPRLPRPRPRPFESPRP | 0.17 |
| RRIRPRPPRLPRPRPRPFEVPRP | 0.0802 |
| RRIRPRPPRLPRPRPRPFFYPRP | -0.214 |
| RRIRPRPPRLPRPRPRPFGFPRP | 0.0716 |
| RRIRPRPPRLPRPRPRPFGIPRP | -0.21 |
| RRIRPRPPRLPRPRPRPFHCPRP | -0.297 |
| RRIRPRPPRLPRPRPRPFHKPRP | -0.453 |
| RRIRPRPPRLPRPRPRPFHPPRP | -0.255 |
| RRIRPRPPRLPRPRPRPFIVPRP | -0.257 |
| RRIRPRPPRLPRPRPRPFLFPRP | -0.204 |
| RRIRPRPPRLPRPRPRPFLVPRP | -0.0765 |
| RRIRPRPPRLPRPRPRPFMIPRP | 0.471 |
| RRIRPRPPRLPRPRPRPFMPPRP | -0.793 |
| RRIRPRPPRLPRPRPRPFMSPRP | -0.384 |
| RRIRPRPPRLPRPRPRPFNMPRP | -0.949 |
| RRIRPRPPRLPRPRPRPFQNPRP | -0.445 |
| RRIRPRPPRLPRPRPRPFRIPRP | 0.000199 |
| RRIRPRPPRLPRPRPRPFTFPRP | -0.189 |
| RRIRPRPPRLPRPRPRPFTWPRP | -0.236 |
| RRIRPRPPRLPRPRPRPFVHPRP | -0.246 |
| RRIRPRPPRLPRPRPRPFVMPRP | -0.201 |

| Sequence | shrunken log2 fold change |
| --- | --- |
| RRIRPRPPRLPRPRPRPFWYPRP | -0.525 |
| RRIRPRPPRLPRPRPRPGAIPRP | 0.0588 |
| RRIRPRPPRLPRPRPRPGCPPRP | 0.0239 |
| RRIRPRPPRLPRPRPRPGCWPRP | 0.621 |
| RRIRPRPPRLPRPRPRPGDDPRP | -0.292 |
| RRIRPRPPRLPRPRPRPGDQPRP | 3.33 |
| RRIRPRPPRLPRPRPRPGFAPRP | 0.318 |
| RRIRPRPPRLPRPRPRPGFKPRP | 0.13 |
| RRIRPRPPRLPRPRPRPGFTPRP | -0.139 |
| RRIRPRPPRLPRPRPRPGGHPRP | 0.372 |
| RRIRPRPPRLPRPRPRPGGYPRP | 0.25 |
| RRIRPRPPRLPRPRPRPGIIPRP | -0.0894 |
| RRIRPRPPRLPRPRPRPGNHPRP | -0.16 |
| RRIRPRPPRLPRPRPRPGPCPRP | 0.363 |
| RRIRPRPPRLPRPRPRPGPNPRP | 0.51 |
| RRIRPRPPRLPRPRPRPGQYPRP | 0.0431 |
| RRIRPRPPRLPRPRPRPGRGPRP | 0.611 |
| RRIRPRPPRLPRPRPRPGRNPRP | -0.0548 |
| RRIRPRPPRLPRPRPRPGRVPRP | 0.318 |
| RRIRPRPPRLPRPRPRPGSDPRP | -0.00287 |
| RRIRPRPPRLPRPRPRPGSIPRP | -0.261 |
| RRIRPRPPRLPRPRPRPGSSPRP | -0.0653 |
| RRIRPRPPRLPRPRPRPGTGPRP | -0.0651 |
| RRIRPRPPRLPRPRPRPGTHPRP | -0.017 |
| RRIRPRPPRLPRPRPRPGTKPRP | 0.453 |

| Sequence | shrunken log2 fold change |
| --- | --- |
| RRIRPRPPRLPRPRPRPGTSPRP | -0.0162 |
| RRIRPRPPRLPRPRPRPGVRPRP | 0.116 |
| RRIRPRPPRLPRPRPRPGYDPRP | -0.0887 |
| RRIRPRPPRLPRPRPRPHALPRP | -0.376 |
| RRIRPRPPRLPRPRPRPHAWPRP | 0.189 |
| RRIRPRPPRLPRPRPRPHCPPRP | 0.0157 |
| RRIRPRPPRLPRPRPRPHETPRP | -0.164 |
| RRIRPRPPRLPRPRPRPHEWPRP | 0.278 |
| RRIRPRPPRLPRPRPRPHFRPRP | 0.0655 |
| RRIRPRPPRLPRPRPRPHGGPRP | 0.216 |
| RRIRPRPPRLPRPRPRPHGVPRP | -0.104 |
| RRIRPRPPRLPRPRPRPHKGPRP | 0.0224 |
| RRIRPRPPRLPRPRPRPHKVPRP | -0.429 |
| RRIRPRPPRLPRPRPRPHLFPRP | -0.0473 |
| RRIRPRPPRLPRPRPRPHMHPRP | -0.438 |
| RRIRPRPPRLPRPRPRPHMQPRP | 0.151 |
| RRIRPRPPRLPRPRPRPHSQPRP | -0.134 |
| RRIRPRPPRLPRPRPRPHSRPRP | -0.198 |
| RRIRPRPPRLPRPRPRPHTFPRP | -0.667 |
| RRIRPRPPRLPRPRPRPHTYPRP | -0.942 |
| RRIRPRPPRLPRPRPRPHVDPRP | -0.029 |
| RRIRPRPPRLPRPRPRPHVFPRP | -0.327 |
| RRIRPRPPRLPRPRPRPHVLPRP | -0.0256 |
| RRIRPRPPRLPRPRPRPHVMPRP | -0.0285 |
| RRIRPRPPRLPRPRPRPHVVPRP | -0.136 |

| Sequence | shrunken log2 fold change |
| --- | --- |
| RRIRPRPPRLPRPRPRPIDGPRP | 0.023 |
| RRIRPRPPRLPRPRPRPIDMPRP | -0.0916 |
| RRIRPRPPRLPRPRPRPIDPPRP | -0.172 |
| RRIRPRPPRLPRPRPRPIERPRP | 0.157 |
| RRIRPRPPRLPRPRPRPIEWPRP | 0.015 |
| RRIRPRPPRLPRPRPRPIFLPRP | 0.124 |
| RRIRPRPPRLPRPRPRPIFTPRP | -0.0736 |
| RRIRPRPPRLPRPRPRPIFWPRP | 1.25 |
| RRIRPRPPRLPRPRPRPIHTPRP | -0.177 |
| RRIRPRPPRLPRPRPRPIHWPRP | 0.225 |
| RRIRPRPPRLPRPRPRPIKHPRP | -0.31 |
| RRIRPRPPRLPRPRPRPIKQPRP | 0.109 |
| RRIRPRPPRLPRPRPRPILEPRP | -0.132 |
| RRIRPRPPRLPRPRPRPILHPRP | -0.277 |
| RRIRPRPPRLPRPRPRPILYPRP | -0.299 |
| RRIRPRPPRLPRPRPRPIMDPRP | -0.00126 |
| RRIRPRPPRLPRPRPRPINHPRP | -0.619 |
| RRIRPRPPRLPRPRPRPINRPRP | -0.11 |
| RRIRPRPPRLPRPRPRPIRKPRP | 0.0224 |
| RRIRPRPPRLPRPRPRPISNPRP | -0.408 |
| RRIRPRPPRLPRPRPRPIVEPRP | 0.233 |
| RRIRPRPPRLPRPRPRPIWFPRP | -0.0151 |
| RRIRPRPPRLPRPRPRPIYDPRP | -0.251 |
| RRIRPRPPRLPRPRPRPIYQPRP | -0.35 |
| RRIRPRPPRLPRPRPRPKCHPRP | 0.0622 |

| Sequence | shrunken log2 fold change |
| --- | --- |
| RRIRPRPPRLPRPRPRPKDLPRP | -0.146 |
| RRIRPRPPRLPRPRPRPKDWPRP | 0.342 |
| RRIRPRPPRLPRPRPRPKFFPRP | 0.0479 |
| RRIRPRPPRLPRPRPRPKFHPRP | -0.143 |
| RRIRPRPPRLPRPRPRPKHEPRP | 0.0756 |
| RRIRPRPPRLPRPRPRPKILPRP | 0.0456 |
| RRIRPRPPRLPRPRPRPKIMPRP | -0.437 |
| RRIRPRPPRLPRPRPRPKKAPRP | 0.129 |
| RRIRPRPPRLPRPRPRPKKYPRP | -0.555 |
| RRIRPRPPRLPRPRPRPKMHPRP | 0.153 |
| RRIRPRPPRLPRPRPRPKNPPRP | 0.0941 |
| RRIRPRPPRLPRPRPRPKPKPRP | 0.382 |
| RRIRPRPPRLPRPRPRPKQDPRP | 0.0659 |
| RRIRPRPPRLPRPRPRPKRLPRP | 0.285 |
| RRIRPRPPRLPRPRPRPKRPPRP | 0.465 |
| RRIRPRPPRLPRPRPRPKSDPRP | 0.0265 |
| RRIRPRPPRLPRPRPRPKSHPRP | -0.246 |
| RRIRPRPPRLPRPRPRPKSQPRP | -0.193 |
| RRIRPRPPRLPRPRPRPKSYPRP | -0.0208 |
| RRIRPRPPRLPRPRPRPKTWPRP | 0.0474 |
| RRIRPRPPRLPRPRPRPKVPPRP | 0.303 |
| RRIRPRPPRLPRPRPRPKWPPRP | -0.0466 |
| RRIRPRPPRLPRPRPRPKYGPRP | -0.491 |
| RRIRPRPPRLPRPRPRPKYPPRP | -0.672 |
| RRIRPRPPRLPRPRPRPKYWPRP | -0.127 |

| Sequence | shrunken log2 fold change |
| --- | --- |
| RRIRPRPPRLPRPRPRPLACPRP | 0.265 |
| RRIRPRPPRLPRPRPRPLAWPRP | 0.439 |
| RRIRPRPPRLPRPRPRPLENPRP | -0.00388 |
| RRIRPRPPRLPRPRPRPLEPPRP | 0.0434 |
| RRIRPRPPRLPRPRPRPLERPRP | 0.277 |
| RRIRPRPPRLPRPRPRPLGRPRP | 0.0841 |
| RRIRPRPPRLPRPRPRPLHKPRP | -0.00927 |
| RRIRPRPPRLPRPRPRPLISPRP | -0.17 |
| RRIRPRPPRLPRPRPRPLLMPRP | -0.185 |
| RRIRPRPPRLPRPRPRPLLPPRP | -0.0532 |
| RRIRPRPPRLPRPRPRPLLTPRP | 0.252 |
| RRIRPRPPRLPRPRPRPLNNPRP | -0.541 |
| RRIRPRPPRLPRPRPRPLQHPRP | -0.17 |
| RRIRPRPPRLPRPRPRPLQQPRP | 0.176 |
| RRIRPRPPRLPRPRPRPLSAPRP | 0.281 |
| RRIRPRPPRLPRPRPRPLSPPRP | -0.113 |
| RRIRPRPPRLPRPRPRPLVVPRP | -0.0898 |
| RRIRPRPPRLPRPRPRPLWLPRP | -0.0275 |
| RRIRPRPPRLPRPRPRPLYLPRP | -0.625 |
| RRIRPRPPRLPRPRPRPLYWPRP | -0.0211 |
| RRIRPRPPRLPRPRPRPMAHPRP | -0.165 |
| RRIRPRPPRLPRPRPRPMARPRP | 0.154 |
| RRIRPRPPRLPRPRPRPMFSPRP | -0.295 |
| RRIRPRPPRLPRPRPRPMFWPRP | -0.0858 |
| RRIRPRPPRLPRPRPRPMGDPRP | 0.234 |
